This note sets out measurements from article PMC6355928.

The target in this experiment is Rheb (UniProt Q15382). Put plainly: co-immunoprecipitation, Western blot. The note with it: reference: USP4 wild type; sites S445. A general note: In western blotting, separated proteins are transferred to a membrane and probed.

Take USP4 (from UniProt Q13107) USP4-S445A: the “binding against the reference” value is listed as “weaker”.
